Results from the Human Domainome abundance scans (Beltran et al. 2025).
± gives the uncertainty stated by the source.

B1: Unconventional myosin-Ie, residues 1051 to 1108; numbered along this chain, Q12965 (parent)
chain: PQVPQCKALYAYDAQDTDELSFNANDIIDIIKEDPSGWWTGRLRGKQGLFPNNYVTKI

Variants of: B1
Assay: abundance fitness (aPCA) (normalised: wild type 0, dead -1); higher = more abundant; growth selection in yeast, the domain comes from the species named
Details: Homo sapiens

Abundance fitness, by site and new letter:
N52: S 0.024 ± 0.048, Y -0.209 ± 0.11, R -0.114 ± 0.06, M -0.231 ± 0.055, V -0.068 ± 0.047, T -0.087 ± 0.042, Q -0.197 ± 0.096, W -0.053 ± 0.041
V55: S -0.732 ± 0.13, Q -1.02 ± 0.12, T -0.111 ± 0.052, M -0.534 ± 0.086, D -0.777 ± 0.23, P -0.747 ± 0.28, G -0.94 ± 0.11, A -0.387 ± 0.069, I -0.27 ± 0.15, N -0.632 ± 0.44, C -0.197 ± 0.063, E -0.945 ± 0.13, W -0.645 ± 0.066
Y54: K -0.158 ± 0.049, H 0.038 ± 0.07, N -0.657 ± 0.12, M -0.16 ± 0.085, P -0.814 ± 0.23, D -0.949 ± 0.06, G -0.713 ± 0.089, V -0.145 ± 0.047, C -0.087 ± 0.064, F -0.243 ± 0.096, I -0.296 ± 0.12, Q -0.43 ± 0.088, A -0.055 ± 0.032, L -0.04 ± 0.056, E -0.97 ± 0.23
K57: Q -0.315 ± 0.048, Y 0.151 ± 0.087, W -0.554 ± 0.065, G -0.391 ± 0.047, P -0.218 ± 0.12, M -0.34 ± 0.088, S -0.323 ± 0.083, V -0.257 ± 0.06, L -0.442 ± 0.098, E -0.266 ± 0.068, T -0.365 ± 0.1, D -0.295 ± 0.1, A -0.337 ± 0.05, N -0.143 ± 0.11
T56: F -0.023 ± 0.062, K -0.165 ± 0.088, D -0.034 ± 0.039, G -0.255 ± 0.044, R -0.097 ± 0.046, W -0.122 ± 0.076, N -0.078 ± 0.05, Y -0.197 ± 0.34, E 0.033 ± 0.038, C -0.074 ± 0.078, H 0.044 ± 0.12, V -0.074 ± 0.034, S -0.042 ± 0.047, I -0.261 ± 0.13, M 0.023 ± 0.058, P -0.534 ± 0.081, A -0.075 ± 0.041
N53: W -0.151 ± 0.058, H -0.012 ± 0.078, G -0.027 ± 0.043, L -0.188 ± 0.054, Q -0.07 ± 0.088, S -0.262 ± 0.052, T -0.275 ± 0.097, A -0.147 ± 0.056, D 0.016 ± 0.052, E -0.078 ± 0.066, K -0.066 ± 0.089, F 0.071 ± 0.1, C -0.021 ± 0.054, M 0.075 ± 0.072, Y -0.22 ± 0.1, P -0.516 ± 0.12, V -0.176 ± 0.063
I58: L -0.091 ± 0.078, T -0.484 ± 0.25, G -0.456 ± 0.24, F -0.116 ± 0.084, D -0.089 ± 0.25, H -0.333 ± 0.2, R -0.32 ± 0.058, M 0.015 ± 0.48, V -0.055 ± 0.039, S -0.15 ± 0.049, Y -0.299 ± 0.2
